This experiment deals with T1, MutLα (MLH1/PMS2 heterodimer), recombinant human (human, UniProt P40692 1-756; P54278 1-862).
T1 construct: MLH1 subunit of human MutLα; PMS2 subunit of human MutLα; Heterodimer; source: recombinant (details in SI Appendix)
Description: far-Western, overlay or dot blot; far-western analysis of FAN1 and MutLα (SI Appendix, Fig. S4E); which protein was spotted is not told in the main text. The conditions noted are these: both partners purified.

B1: FAN1 (FANCD2 and FANCI-associated nuclease 1), recombinant full-length human (enzyme, UniProt Q9Y2M0 1-1017, looked up)
chain: MMSEGKPPDKKRPRRSLSISKNKKKASNSIISCFNNAPPAKLACPVCSKMVPRYDLNRHLDEMCANNDFVQVDPGQVGLINSNVSMVDLTSVTLEDVTPKKSPPPKTNLTPGQSDSAKREVKQKISPYFKSNDVVCKNQDELRNRSVKVICLGSLASKLSRKYVKAKKSIDKDEEFAGSSPQSSKSTVVKSLIDNSSEIEDEDQILENSSQKENVFKCDSLKEECIPEHMVRGSKIMEAESQKATRECEKSALTPGFSDNAIMLFSPDFTLRNTLKSTSEDSLVKQECIKEVVEKREACHCEEVKMTVASEAKIQLSDSEAKSHSSADDASAWSNIQEAPLQDDSCLNNDIPHSIPLEQGSSCNGPGQTTGHPYYLRSFLVVLKTVLENEDDMLLFDEQEKGIVTKFYQLSATGQKLYVRLFQRKLSWIKMTKLEYEEIALDLTPVIEELTNAGFLQTESELQELSEVLELLSAPELKSLAKTFHLVNPNGQKQQLVDAFLKLAKQRSVCTWGKNKPGIGAVILKRAKALAGQSVRICKGPRAVFSRILLLFSLTDSMEDEDAACGGQGQLSTVLLVNLGRMEFPSYTINRKTHIFQDRDDLIRYAAATHMLSDISSAMANGNWEEAKELAQCAKRDWNRLKNHPSLRCHEDLPLFLRCFTVGWIYTRILSRFVEILQRLHMYEEAVRELESLLSQRIYCPDSRGRWWDRLALNLHQHLKRLEPTIKCITEGLADPEVRTGHRLSLYQRAVRLRESPSCKKFKHLFQQLPEMAVQDVKHVTITGRLCPQRGMCKSVFVMEAGEAADPTTVLCSVEELALAHYRRSGFDQGIHGEGSTFSTLYGLLLWDIIFMDGIPDVFRNACQAFPLDLCTDSFFTSRRPALEARLQLIHDAPEESLRAWVAATWHEQEGRVASLVSWDRFTSLQQAQDLVSCLGGPVLSGVCRHLAADFRHCRGGLPDLVVWNSQSRHFKLVEVKGPNDRLSHKQMIWLAELQKLGAEVEVCHVVAVGAKSQSLS
notes: FAN1 (FANCD2 and FANCI-associated nuclease 1), human, full length; also called FAN1 nuclease; source: recombinant; prepared as per previously established procedures (details in SI Appendix)
Regarding B1, the binding result is “binds”.

The values are drawn from article PMC10438374, “FAN1 removes triplet repeat extrusions via a PCNA- and RFC-dependent mechanism” (Proceedings of the National Academy of Sciences of the …, 2023).
